Measurements reported in patent publication US20120263745A1 (DUKE UNIVERSITY, published 2012).
Where no end group is shown, it is not given here.

B1: Recombinant Chlamydial Protease-like Activity Factor (CPAF), his-tagged, expressed in E. coli BL21 (DE3) from pET30b-CPAF (protein)
chain 1: IHSPVQGESLVCKNALQDLSFLEHLLQVKYAPKTWKEQYLGWDLVQSSVSAQQKLRTQENPSTSFCQQVLADFIGGLNDFHAGVTFFAIESAYLPYTVQKSSDGRFYFVDIMTFSSEIRVGDELLEVDGAPVQDVLATLYGSNHKGTAAEESAALRTLFSRMASLGHKVPSGRTTLKIRRPFGTTREVRVKWRYVPEGVGDLATIAPSIRAPQLQKSM
chain 2: GYNIGSTDGFLPVIGPVIWESEGLFRAYISSVTDGDGKSHKVGFLRIPTYSWQDMEDFDPSGPPPWEEFAKIIQVFSSNTEALIIDQTNNPGGSVLYLYALLSMLTDRPLELPKHRMILTQDEVVDALDWLTLLENVDTNVESRLALGDNMEGYTVDLQVAEYLKSFGRQVLNCWSKGDIELSTPIPLFGFEKIHPHPRVQYSKPICVLINEQDFSCADFFPVVLKDNDRALIVGTRTAGAGGFVFNVQFPNRTGIKTCSLTGSLAVREHGAFIENIGVEPHIDLPFTANDIRYKGYSEYLDKVKKLVCQLINNDGTIILAEDGSF

Legend:
[1] = biological target: T1, Abz-tagged model CPAF substrate Abz-V-R-L-R-S-S-V-P-G-V-NH2 (SEQ ID NO:9), derived from human vimentin
T1 chain: VRLRSSVPGV

[2] = biological target: T2, Peptide of SEQ ID NO:7 (CPAF inhibitory segment plus nine C-terminal arginines) (not fully specified)
T2 chain: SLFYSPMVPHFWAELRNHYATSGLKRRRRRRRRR

[3] = biological target: Endogenous Tarp from EB lysates
[4] = biological target: Recombinant CdsQ, type-III secretion (T3S) core component
[5] = biological target: Endogenous Ct694 from EB lysates
[6] = biological target: T3, Sequence-scrambled control peptide H-NFALSHFRLPLSTYKEMPYVSHWAGRRRRRRRRR-NH2 (SEQ ID NO:11)
T3 chain: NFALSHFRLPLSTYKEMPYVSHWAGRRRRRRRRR

[7] = biological target: Recombinant Ct584, T3S needle component
[8] = biological target: Recombinant Mcsc, T3S chaperone
[9] = biological target: Endogenous Ct288 from EB lysates
[10] = biological target: T4, Recombinant Chlamydial Protease-like Activity Factor (CPAF), his-tagged, expressed in E. coli BL21 (DE3) from … (C. trachomatis, UniProt O84866 17-234; O84866 276-601); assay: cell-based or functional assay
T4 sequence 1: B1 chain 1
T4 sequence 2: B1 chain 2

Binder | KM of CPAF proteolysis of the model substrate (HPLC-based assay) [1] | kcat of CPAF proteolysis of the model substrate (HPLC-based assay) [1] | kcat/KM of CPAF proteolysis of the model substrate (HPLC-based assay) [1] | CPAF cleavage of GST-chlamydial substrates in vitro (SDS-PAGE, FIG. 8E) [2] | incubation of EB lysates with recombinant CPAF, immunoblot (FIG. 7) [3] | incubation with recombinant CPAF, immunoblot (FIG. 5B) [4] | incubation of EB lysates with recombinant CPAF, immunoblot (FIG. 7) [5] | CPAF cleavage of GST-chlamydial substrates in vitro (SDS-PAGE, FIG. 8E) [6] | incubation with recombinant CPAF, immunoblot (FIG. 5B) [7] | incubation with recombinant CPAF, immunoblot (FIG. 5B) [8] | incubation of EB lysates with recombinant CPAF, immunoblot (FIG. 7) [9] | IC50, inhibition of CPAF cleavage of the Abz-tagged model substrate SEQ ID NO:9 (HPLC-based assay, 62.5 nM CPAF, 0.5 mM substrate) [10] [nM] | IC50, inhibition of CPAF cleavage of the Abz/3-nitrotyrosine model substrate SEQ ID NO:10 (FRET-based assay, 62.5 nM CPAF) [10] [nM] | fold greater inhibition than SEQ ID NO:2 (HPLC-based assay) [10] [fold] | fold greater inhibition than lactacystin (HPLC-based assay) [10] [fold]
B1 | KM=0.88 mM | kcat=13.2 5^-1 | kcat/KM=1.5×10^4 M^-1s^-1 | broadly inhibited degradation of CPAF substrates in vitro and in vivo | specifically degraded | Recombinant CPAF does not cleave chlamydial proteins that are resistant to processing by cytosols form infected HeLa cells | specifically degraded | but not a scrambled sequence of equal molecular weight (SEQ ID NO:11) | Recombinant CPAF does not cleave chlamydial proteins that are resistant to processing by cytosols form infected HeLa cells | Recombinant CPAF does not cleave chlamydial proteins that are resistant to processing by cytosols form infected HeLa cells | Ct694, TARP and Ct288 were cleaved | – | – | – | –
SLFYSPMVPHFWAELRNHYATSGLK (not fully specified (C-terminus)) [Peptide of SEQ ID NO:2 (CPAF inhibitory segment, SLFYSPMVPHFWAELRNHYATSGLK)] | – | – | – | – | – | – | – | – | – | – | – | 1600 | – | – | –
SLFYSPMVPHFWAELRNHYATSGLKRRRRRRRRR (not fully specified (C-terminus)) [Peptide of SEQ ID NO:7 (CPAF inhibitory segment plus nine C-terminal arginines)] | – | – | – | – | – | – | – | – | – | – | – | 50 | 30 | ~30 | ~200
